Data on two molecules can be found in PMC9271601 (Structure (London, England : 1993), 2022).

In test [1] the target is H3 (A/Texas/50/2012) HA probe (Influenza A virus A/Texas/50/2012 (H3N2), UniProt R4L1D1, strain, biotin (biotin protein ligase, AviTag)). The test can be described thus: flow cytometry on cells. (Flow cytometry measures light scatter and fluorescence of single cells or particles in a stream.)
The target of test [2] is H3N2 A/Victoria/361/2011 hemagglutinin trimer, wild type (Influenza A virus A/Victoria/361/2011 …, UniProt A0A097PF39, strain). Put plainly: BLI. (In general: BLI is a label-free optical method that tracks binding on a fibre tip over time.)

B1: 1D12 B cell receptor on the donor's B cell (antibody, V domains shown)
VH: QLVQSGAEVKKPGASVKVSCKASGYTFTGYYLHWVRQAPGQGLEWMGRINPDTGGTNYAQKFQGRVSMTRDMSISTHYMELSRLTSDDTAVYYCATKRGAVTAMVYYYFYGMDVWGQGTTVTVSS
VL: DIVMTQSPLSLSVTPGEPASISCRSSHSLLHLNGYNYLDWYLQKPGQSPQLLIYLGSNRASGVPDRFSGSGSGTDFTLKISRVEAEDVGIYYCMQALRTPPGLTFGGGTKVDIK
Take B1: the binding result in test [1] is given as “binds”.

B2: 315–19-1D12 Fab (Fab, V domains shown)
VH: B1 VH
VL: B1 VL
For the molecule B2, the binding result in test [2] is “binds”.
